Consider four molecules from EP4480964A1, “TRANSFERRIN RECEPTOR-BINDING MOLECULES, CONJUGATES THEREOF AND THEIR USES TO PREVENT OR TREAT MUSCULAR DISEASES” (Vect-Horus, priority 2023, dated 2024).

In one assay the test system is rhTfR. As to the kind of experiment: Competition assay with fluorescent reference C5-Alexa680 on living CHO-rhTfR-GFP cells. The assay is classed as binding. To be noted: cells expressing macaque rhesus TfR (CHO-rhTfR-GFP), C5-Alexa680 100 nM, 3 hrs at 37°C; Ki similar or lower than free VHHs. As to the method:
(§1) The binding of VHH-Oligo conjugates to mTfR, rhTfR and hTfR was evaluated using a competition assay on living cells expressing the receptor of interest, namely murine neuroblastoma Neuro-2a cells (N2a), CHO cells genetically engineered by the inventors to stably express the macaque rhesus TfR fused to the eGFP protein in C-terminal (CHO-rhTfR-GFP cells), or human breast ductal carcinoma MCF-7 cells, respectively. MCF-7 and N2a cells were grown in Dulbecco's Modified Eagle Medium (DMEM) GlutaMAX supplemented with 10% v/v FBS in 5% CO2 at 37°C. CHO-rhTfR-GFP cells were grown in Ham F12 GlutaMAX supplemented with 10% v/v FBS in 5% CO2 at 37°C. Cells were seeded two days before experiments in 96-well plates at a density of 50.000 cells/well. On the day of the experiment, free VHHs or VHH-Oligo conjugates diluted at various concentrations in DMEM supplemented with 1% bovine serum albumin (BSA) (MCF-7 and N2a cells) or in Ham F12 supplemented with 1% BSA (CHO-rhTfR-GFP cells) were co-incubated at various concentrations on each cell line during 3 hrs at 37°C with a subsaturating concentration of the fluorescent reference compound C5-Alexa680 (100 nM on N2a and CHO-rhTfR-GFP cell lines, 10 nM on MCF-7 cells). After treatment, cells were washed with D-PBS and dissociated by incubating with Trypsin/EDTA for 5 mins at 37°C, before the addition of cold culture media (4°C) to inhibit Trypsin activity. Resuspended cells were transferred in a 96-deepwell plate (V-bottom) containing 1% fetal bovine serum (FBS) / 0.02% sodium azide in phosphate-buffered saline (PBS) and then centrifuged for 5 min at 2000 rpm at 4°C. After removing the supernatant, 5 mM EDTA in D-PBS and 4% paraformaldehyde (PFA) (v/v 1:1) were added into wells to fix cells for 15 min at room temperature. PFA was removed by centrifugation (5 min, 3000 rpm, 4°C) and cells were resuspended with 5 mM EDTA in D-PBS. Then the cellular A680-associated fluorescence signal was quantified using an Attune™ NxT flow cytometer (Thermo Fisher Scientific) equipped with Attune™ NxT v3.1.2. Experimental data (experimental triplicates) were fitted with GraphPad Prism® software using a nonlinear fit to determine the apparent Ki inhibition constants. Graphs of Figure 1 show representative inhibition curves and tables show means ± SD of at least 2 independent experiments.

For the next assay, the target named is T1, mTfR (Mus musculus, UniProt Q62351).
T1 construct: living cells expressing the receptor of interest, namely murine neuroblastoma Neuro-2a cells (N2a); endogenous in cells; host or cells: Neuro-2a (N2a) murine neuroblastoma cells
T1 sequence (Q62351 whole entry): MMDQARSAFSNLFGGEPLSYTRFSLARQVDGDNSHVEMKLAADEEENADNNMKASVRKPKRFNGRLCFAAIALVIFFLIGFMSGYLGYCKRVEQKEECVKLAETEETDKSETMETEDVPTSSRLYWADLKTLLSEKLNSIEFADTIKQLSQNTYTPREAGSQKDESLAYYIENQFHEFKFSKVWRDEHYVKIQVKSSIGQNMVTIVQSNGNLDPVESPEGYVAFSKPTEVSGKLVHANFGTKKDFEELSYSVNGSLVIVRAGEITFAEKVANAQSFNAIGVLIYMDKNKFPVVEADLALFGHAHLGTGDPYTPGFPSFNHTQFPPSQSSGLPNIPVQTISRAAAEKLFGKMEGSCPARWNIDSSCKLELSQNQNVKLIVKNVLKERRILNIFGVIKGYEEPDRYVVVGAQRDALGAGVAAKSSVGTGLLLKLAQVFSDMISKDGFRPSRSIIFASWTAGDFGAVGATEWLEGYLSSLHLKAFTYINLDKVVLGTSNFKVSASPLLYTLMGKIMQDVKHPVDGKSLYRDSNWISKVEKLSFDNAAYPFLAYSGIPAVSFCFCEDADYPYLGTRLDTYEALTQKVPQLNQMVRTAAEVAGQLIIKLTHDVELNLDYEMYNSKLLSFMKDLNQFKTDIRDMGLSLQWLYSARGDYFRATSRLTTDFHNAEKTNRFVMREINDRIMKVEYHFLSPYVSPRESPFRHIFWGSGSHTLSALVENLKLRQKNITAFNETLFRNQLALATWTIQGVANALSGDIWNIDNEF
As to the kind of experiment: Competition assay with fluorescent reference C5-Alexa680 on living Neuro-2a cells. The assay is classed as binding. To be noted: cells expressing murine TfR (Neuro-2a), C5-Alexa680 100 nM, 3 hrs at 37°C; Ki similar or lower than free VHHs. As to the method:
as §1

A further assay has as its target T2, hTfR (Homo sapiens, UniProt P02786).
T2 construct: or human breast ductal carcinoma MCF-7 cells, respectively; endogenous in cells; host or cells: MCF-7 human breast ductal carcinoma cells
In words: Competition assay with fluorescent reference C5-Alexa680 on living MCF-7 cells. The assay is classed as binding. To be noted: cells expressing human TfR (MCF-7), C5-Alexa680 10 nM, 3 hrs at 37°C; Ki similar or lower than free VHHs. As to the method:
as §1

The test system of a further assay is hSOD1 mRNA. In words: Free uptake gene silencing (RT-qPCR) in human cell lines. The assay is classed as cell-based. To be noted: 3 days, various human cell lines (Figure 2A). As to the method:
Human cell lines MCF-7 (breast ductal carcinoma cells), Igrov-1 (ovarian cancer cells) and MIA PaCa-2 cells (pancreatic cancer cells) and the murine neuroblastoma cell line Neuro-2a were grown in DMEM GlutaMAX supplemented with 10% v/v FBS in 5% CO2 at 37°C. For free uptake experiments, cells were seeded in 96-well plates at a density of 2.000 cells/well. Twenty-four hours later, the medium was removed, and cells were further incubated during 3 days in DMEM supplemented with 1% v/v FBS containing various concentrations of free or conjugated oligos. […] Relative RNA expression levels were quantified by RT-qPCR using the TaqMan™ Fast Universal PCR Master Mix (2X) no AmpErase™ UNG kit (Applied Biosystems) and commercially available TaqMan™ probes for murine SOD1, human SOD1 or human MALAT-1 genes (Applied Biosystems). Expression data were analyzed using the DDCq method normalized to the expression of reference RpL 13 or GAPDH genes, based on raw quantification cycle (Cq) values (Bustin et al.) and are presented as mRNA levels relative to untreated cells. Experimental data (experimental triplicates) are presented as means ± standard deviation (SD) and were analysed with GraphPad Prism® software using a three-parameter log(inhibitor) vs. response nonlinear regression to determine the IC50. […]

A further assay relates to SOD1 mRNA. In words: In vivo mRNA knock-down by VHH-siSOD1h conjugate in non-human primates. More on the design: species or system olive baboons (Papio Anubis). As to the method:
VHH-siSOD1h conjugates targeting the human and non-human primate (NHP) SOD1 gene were assessed for their ability to mediate SOD1 mRNA knock-down in muscle tissues of olive baboons (Papio Anubis). PBS vehicle (control) or a TfR-binding VHH-siSOD 1h conjugate was administered as a single intravenous (IV infusion, 30 min) in olive baboons (males, 10-17-month-old, 2.6-4.5kg) at the dose of 5 mg/kg (siRNA molar equivalent). At indicated times following administration, approximately 100 mg samples of gastrocnemius, quadriceps and tibialis anterior muscle were withdrawn under general anesthesia, snap-frozen in 10 vol. ofNucleoProtect RNA stabilization reagent (Macherey-Nagel) and stored at -20°C. […] RNA samples were analyzed and dosed using a Fragment Analyzer RNA kit in a Fragment Analyzer system (Agilent). Relative RNA expression levels were quantified by RT-qPCR using the TaqMan™ Fast Universal PCR Master Mix (2X) no AmpErase™ UNG kit (Applied Biosystems) and commercially available TaqMan™ probes for […] and RpL13 genes (Applied Biosystems). Expression data were analyzed using the DDCq method normalized to the expression of the reference RpL13 gene, based on raw quantification cycle (Cq) values (Bustin et al.). The results are expressed as means ± standard error of the mean (SEM) and are presented as mRNA levels relative to the control animals injected with PBS. […]

T2 sequence (P02786 whole entry): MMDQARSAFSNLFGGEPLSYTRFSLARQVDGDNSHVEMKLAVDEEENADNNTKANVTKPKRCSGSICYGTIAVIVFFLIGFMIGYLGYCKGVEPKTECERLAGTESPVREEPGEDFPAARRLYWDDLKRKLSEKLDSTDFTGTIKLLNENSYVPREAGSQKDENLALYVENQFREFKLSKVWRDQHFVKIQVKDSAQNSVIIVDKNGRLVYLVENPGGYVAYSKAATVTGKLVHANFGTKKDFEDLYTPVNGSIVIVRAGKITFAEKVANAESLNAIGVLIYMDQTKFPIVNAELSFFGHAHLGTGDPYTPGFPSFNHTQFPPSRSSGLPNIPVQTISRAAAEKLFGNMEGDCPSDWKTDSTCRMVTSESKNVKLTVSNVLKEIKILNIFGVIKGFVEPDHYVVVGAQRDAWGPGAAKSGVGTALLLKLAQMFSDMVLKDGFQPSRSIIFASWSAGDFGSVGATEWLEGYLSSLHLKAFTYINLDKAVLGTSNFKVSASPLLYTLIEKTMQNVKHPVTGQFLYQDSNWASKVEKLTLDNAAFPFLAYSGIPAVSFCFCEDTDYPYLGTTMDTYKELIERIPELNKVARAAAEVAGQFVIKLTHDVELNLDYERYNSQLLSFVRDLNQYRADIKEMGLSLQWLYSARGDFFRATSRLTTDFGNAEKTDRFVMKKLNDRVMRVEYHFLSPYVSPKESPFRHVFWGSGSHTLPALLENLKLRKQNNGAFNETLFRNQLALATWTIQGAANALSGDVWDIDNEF

B1: C5-siSOD1m: VHH-Oligo conjugate of VHH C5 and siSOD1m (conjugate)
VHH: EVQLVESGGGVVQPGGSLKLSCVASGTDFSINFIRWYRQAPGKQREFVAGFTATGNTNYADSMKGRFTISRDNTKNAVYLQIDSLKPEDTAVYYCYMLDKWGQGTQVTVSS
modifications: left off: things letters cannot carry; small tags and cut ends
With B1, the “inhibition of the binding and uptake of the reference compound” value (“inhibition” below) in the assay on rhTfR, with mTfR and with hTfR was “concentration-dependent inhibition” in each case.

B2: C5-siSOD1h: VHH-Oligo conjugate of VHH C5 and siSOD1h; Figure 12 legend: VHH is C5 (conjugate)
VHH: EVQLVESGGGVVQPGGSLKLSCVASGTDFSINFIRWYRQAPGKQREFVAGFTATGNTNYADSMKGRFTISRDNTKNAVYLQIDSLKPEDTAVYYCYMLDKWGQGTQVTVSS
modifications: left off: things letters cannot carry; small tags and cut ends
Consider B2, for which the “inhibition” value with rhTfR, with mTfR and in the assay with hTfR was “concentration-dependent inhibition” each time. In the assay on hSOD1 mRNA, the “effect on hSOD1 mRNA levels” value is “potent and concentration-dependent hSOD1 mRNA downregulation”. Besides, in the assay with SOD1 mRNA (all muscle tissues tested (gastrocnemius, quadriceps, tibialis anterior), single IV infusion 5 mg/kg (siRNA molar equivalent) (Figure 12)), the “knock-down of SOD1 mRNA” value came out at 60%. Besides, the duration of knock-down result in the assay on SOD1 mRNA (single IV infusion 5 mg/kg (siRNA molar equivalent)) is given as “more than three months”.

B3: B8-siSOD1m: VHH-Oligo conjugate of VHH B8 and siSOD1m (conjugate)
VHH: EVQLVESGGGVVQPGGSLRLSCAASGEIFSINFMRWYRQAPGKQREWVAGFTRDGSTNYPDSAKGRFTISRDNAKNTVYLQIDSLKPEDTAVYYCYMLDTWGQGTQVTVSS
modifications: left off: things letters cannot carry; small tags and cut ends
Turning to B3, the “inhibition” value with rhTfR, with mTfR and in the assay with hTfR was “concentration-dependent inhibition” throughout.

B4: B8-siSOD1h: VHH-Oligo conjugate of VHH B8 and siSOD1h (conjugate)
VHH: EVQLVESGGGVVQPGGSLRLSCAASGEIFSINFMRWYRQAPGKQREWVAGFTRDGSTNYPDSAKGRFTISRDNAKNTVYLQIDSLKPEDTAVYYCYMLDTWGQGTQVTVSS
modifications: left off: things letters cannot carry; small tags and cut ends
Turning to B4, the “inhibition” value in the assay on rhTfR, in the assay with mTfR and with hTfR was “concentration-dependent inhibition” in each case. Moreover, in the assay on hSOD1 mRNA, the “effect on hSOD1 mRNA levels” value was “potent and concentration-dependent hSOD1 mRNA downregulation”.
